The target of test [1] is T1, Mouse IgG1 Fc fused SARS-CoV-2 RBD (Sino Biological) (SARS-CoV-2; mouse, UniProt P0DTC2 330-518). The experiment in a line: BLI, immobilized RBD-mFc. On the technique in general: In BLI a coated tip is dipped into the sample, and binding shifts an interference pattern.
Test [2] addresses SARS-CoV-2 spike, full length, on cells or on pseudotyped/authentic virus (SARS-CoV-2, UniProt P0DTC2 14-1273). The experiment in a line: cell-based or functional assay.
In test [3] the target is SARS-CoV-2 RBD protein Avi-tag biotinylated (AcroBiosystems SPD-C82E9) (SARS-CoV-2, UniProt P0DTC2 330-518).
Test [4] deals with T1, Mouse IgG1 Fc fused SARS-CoV-2 RBD ….
For test [5], the target named is WT SARS-CoV-2 RBD displayed on Saccharomyces cerevisiae (SARS-CoV-2, UniProt P0DTC2 331-518).

In general, Kd refers to the free concentration of one partner at which half of the binding sites on the other are occupied at equilibrium, for simple one-to-one binding. Higher therefore signals lower affinity. One may read the koff as a measure of how fast the partners let go of each other. Higher therefore signals fast dissociation. What is called EC50 (read off the curve) is the concentration needed to bring the measured effect to its halfway point. A lower EC50 (read off the curve) goes with greater potency.

Where only a bound is given, the exact number is not on record here.

B1: D72-55: VHH72_h1_E1D_S56A-(G4S)3-VHH72_h3_S56A-GS-hIgG1hinge_EPKSCdel-hIgG1Fc_LALAPG_Kdel (Fc fusion)
chain: DVQLVESGGGLVQPGGSLRLSCAASGRTFSEYAMGWFRQAPGKEREFVATISWSGGATYYTDSVKGRFTISRDNAKNTVYLQMNSLRPEDTAVYYCAAAGLGTVVSEWDYDYDYWGQGTLVTVSSGGGGSGGGGSGGGGSDVQLVESGGGLVQPGGSLRLSCAASGRTFSEYAMGWFRQAPGKEREFVATISWSGGATYYTDSVKGRFTISRDNAKNTVYLQMNSLRPEDTAVYYCAAAGLGTVVSEWDYDYDYWGQGTLVTVSSGSDKTHTCPPCPAPEAAGGPSVFLFPPKPKDTLMISRTPEVTCVVVDVSHEDPEVKFNWYVDGVEVHNAKTKPREEQYNSTYRVVSVLTVLHQDWLNGKEYKCKVSNKALGAPIEKTISKAKGQPREPQVYTLPPSRDELTKNQVSLTCLVKGFYPSDIAVEWESNGQPENNYKTTPPVLDSDGSFFLYSKLTVDKSRWQQGNVFSCSVMHEALHNHYTQKSLSLSPG
notes: Tetravalent; ExpiCHO
Take B1: the “fold higher affinity than its bivalent counterpart” value in test [1] is more than 100 fold. Further, in test [2], the “PRNT50, authentic SARS-CoV-2” value worked out at 0.02 µg/mL and the “fold lower PRNT50 than the parental construct” value came out at 50 fold.

B2: VHH72_h1(S56A) (VHH)
VHH: EVQLVESGGGLVQPGGSLRLSCAASGRTFSEYAMGWFRQAPGKEREFVATISWSGGATYYTDSVKGRFTISRDNAKNTVYLQMNSLRPEDTAVYYCAAAGLGTVVSEWDYDYDYWGQGTLVTVSS
For the molecule B2, in test [3], the Kd was found to be 3.09 nM, the “fold improvement of KD against VHH72 h1” value turned out to be 3 fold and the koff was found to be 0.00069 s⁻¹. Further, in test [4], the Kd turned out to be 5.26 nM; the “fold better competition than VHH72-wt and VHH72_h1” value was 7 fold; the “fold improvement of KD against VHH72 h1” value was more than 6 fold. The “EC50 (read off the curve)” value in test [5] is approximately 0.3 µg/mL.

The record behind these values is patent US20230227537A1 (VIB VZW, published 2023).
